The target in experiment [1] is T1, human GITR-Fc (R&D Systems cat no. 689-GR) (human, UniProt Q9Y5U5 26-161).
T1 construct: Bought protein; also called GITR (Glucocorticoid-induced TNFR-related); not shown: Fc tag
T1 sequence (looked up): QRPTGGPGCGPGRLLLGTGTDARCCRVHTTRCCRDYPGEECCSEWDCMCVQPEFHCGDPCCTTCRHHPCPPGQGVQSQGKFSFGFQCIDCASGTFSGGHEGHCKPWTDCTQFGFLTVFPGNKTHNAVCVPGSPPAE
Nature of the experiment: ELISA, coated GITR-Fc. The method, then: (§1) Specificity of binding for CD137 over the tumour necrosis factor receptor family members OX40 and GITR (Glucocorticoid-induced TNFR-related) was determined using an ELISA assay. Nunc Maxisorp plates were coated with 1 ug/ml human CD137-Fc recombinant protein (Acro Biosystems 41B-H5258), human GITR-Fc (R&D Systems cat no. 689-GR) human OX40-Fc (R&D Systems cat no. 3388-OX) in sodium carbonate buffer overnight at 4° C. then washed twice with PBS. Non-specific protein interactions were blocked by incubation with 1% (w/v) skimmed milk powder (Marvel®) in PBS/0.1% Tween-20 for 1 hour at room temperature. Plates were washed twice with PBS then VH or antibody control (1 ug/ml) added for 1 hour at room temperature. Following three washes with PBS/0.1% Tween-20 a 1:1000 dilution of anti His-HRP (VH detection) or anti mouse-HRP (positive control mouse monoclonal antibody detection) was added in 1% Marvel/PBS/0.1% Tween-20. The detection antibodies were allowed to bind for 1 hour at room temperature then the plates were washed twice in PBS/0.1% Tween-20 and once in PBS. The ELISA was developed using TMB substrate and the reaction was stopped by the addition of 50 ul 0.5M H₂SO₄ solution. The absorbance at 450 nm was measured using the BMG Pherastar.

Experiment [2] addresses T2, human CD137 expressed on the surface of CHO cells (human, UniProt Q07011 24-255).
T2 construct: Also used for the Jurkat reporter cells that express human CD137 (functional rows); also called CHO human CD137 cells; CHO huCD137
Nature of the experiment: FMAT, CHO human CD137 cells. The essentials: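 His-tagged VH molecules, serially diluted, were incubated for at least 2 h at room temperature with 2000 DRAQ5-stained cells/well, 1.5 nM anti-His and Alexa Fluor-488 anti-mouse secondary in PBS/0.1% BSA/0.05% azide, pH 7.4. FMAT read at 488/640 nm excitation; binding is the FL2 median fluorescence of FL5-gated cells.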

Experiment [3] has as its target T3, human OX40-Fc (R&D Systems cat no. 3388-OX) (human, UniProt P43489 29-216).
T3 construct: Bought protein; not shown: Fc tag
T3 sequence (looked up): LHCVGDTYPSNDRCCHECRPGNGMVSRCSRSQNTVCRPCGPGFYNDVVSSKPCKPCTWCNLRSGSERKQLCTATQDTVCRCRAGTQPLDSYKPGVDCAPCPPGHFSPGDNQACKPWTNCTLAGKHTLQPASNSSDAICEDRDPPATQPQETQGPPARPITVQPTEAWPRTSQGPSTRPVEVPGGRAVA
Nature of the experiment: ELISA, coated OX40-Fc. The method, then: as §1
A general note: In an ELISA, binding on a coated surface is turned into a signal by an enzyme label.

In experiment [4] the target is T4, CD137 on pre-stimulated human CD8+ T cells (human, UniProt Q07011 24-255).
T4 construct: also called pre-stimulated CD8+ cells; primary T cells
Briefly: flow cytometry, PMA/ionomycin-stimulated human CD8+ T cells, mean of 2-3 donors. In outline:
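PMA/ionomycin-activated (48-72 h) CD8+ T cells purified from PBMC by negative selection were incubated with serially diluted His-tagged VH for 30 mins-1 hour at 4° C. Bound VH was detected via anti-His plus Alexa Fluor-488 secondary, with live/dead near-IR gating, and read by flow cytometry after fixation.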
(In general: Flow cytometry measures light scatter and fluorescence of single cells or particles in a stream.)

Experiment [5] addresses T2, human CD137 expressed on the surface of …. Nature of the experiment: FMAT ligand inhibition, CD137 Ligand on CHO human CD137 cells. The essentials: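 Purified Humabody VH was tested in an FMAT format for blocking human CD137 ligand binding to CHO cells expressing human CD137. FL2 median fluorescence was measured and background from excess non-Fc-tagged competitor wells subtracted. Signal was expressed as % of total binding control.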

The values below come from US20200362047A1 (CRESCENDO BIOLOGICS, published 2020).

T4 sequence (Q07011 24-255 limits assumed): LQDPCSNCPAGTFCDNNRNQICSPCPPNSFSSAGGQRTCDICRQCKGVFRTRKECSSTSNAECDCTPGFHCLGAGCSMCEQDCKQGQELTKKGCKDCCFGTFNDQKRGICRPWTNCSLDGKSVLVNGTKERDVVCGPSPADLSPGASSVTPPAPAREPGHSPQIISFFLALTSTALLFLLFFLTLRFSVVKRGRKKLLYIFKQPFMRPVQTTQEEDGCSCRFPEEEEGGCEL
T2 sequence (Q07011 24-255 limits assumed): as above

B1: Humabody VH 1.11 (VHH)
VH: EVQLVESGGGLVQPGGSLRLSCEASGFTFSDYWMNWARQAPGKGLEWVANIKEDGSEKYYVDSVEGRFTISRDNAKNSTYLQMNSLRAEDTAVYYCARGGAGYSMSHYGMDVWGQGTTVTVSSHHHHHH
notes: human single VH domain
With B1, the binding result in experiment [1] and in experiment [3] was “no binding (tested: 1 ug/ml)” in each case. In addition, the EC50 is 0.27 nM in experiment [2] and 0.89 nM in experiment [4]. Further, the IC50 in experiment [5] was 1.6 nM.

B2: Humabody VH 1.52 (VHH)
VH: EVQLVESGGGLVQIGGSLRLSCAASGFTFSKYWMIWVRQAPEKGLEWVANINQDGSEKYYVDSVEGRFTISRDNANNSLFLQMNSLRAEDTAVYYCARGGDDYSISHFGMDVSGQGTRVTVSSHHHHHH
notes: human single VH domain
Take B2: the binding result in experiment [1] and in experiment [3] was “no binding (tested: 1 ug/ml)” in each case. Besides, the EC50 in experiment [2] was 0.37 nM; in experiment [4] it was 0.88 nM. For the same molecule, the IC50 in experiment [5] was 1.2 nM.

B3: Humabody VH 2.1 (VHH)
VH: EVQLVESGGGLVKPGGSLRVSCAASGFTFSDYYMSWFRQAPGKGLEWVSYISGSGDIIDYADSVKGRFTISRDNAKNSLYLQMNNLRAEDTAVYHCAREDSRLTGTTDFDNWGQGTLVTVSSHHHHHH
notes: human single VH domain
As for B3, the binding result in experiment [1] and in experiment [3] was “no binding (tested: 1 ug/ml)” in each case. The EC50 was found to be 0.65 nM in experiment [2] and 2.4 nM in experiment [4]. This molecule also had an IC50 in experiment [5] of 5.7 nM.

B4: Humabody VH 2.8 (VHH)
VH: EVQLVESGGGLVKPGGSLRLSCAASGFAFSDYYMSWFRQAPGKGLEWVSHISGSGTTIDYADSVKGRFTISRDNAKNSLYLQMNSLRAEDTAVYHCAREDSRMPGTTDFDNWGQGTLVTVSSHHHHHH
notes: human single VH domain
B4: the binding result in experiment [1] and in experiment [3] was “no binding (tested: 1 ug/ml)” each time. For the same molecule, the results for the EC50 in experiment [2] and in experiment [4] were 0.19 nM and 6.5 nM, respectively. The same molecule had an IC50 in experiment [5] of 19 nM.

B5: Humabody VH 2.9 (VHH)
VH: EVQLVESGGGLVKPGGSLRLSCAASGFTFSDYYMTWFRQAPGKGLEWISYISGSGDTIDYAESVKGRFTISRDNAKNSLYLQMNSLRAEDTAVYHCAREDSRIAGTTDFDNWGPGTLVTVSSHHHHHH
notes: human single VH domain
On to B5, for which the binding result in experiment [1] and in experiment [3] was “no binding (tested: 1 ug/ml)” in each case. For the same molecule, the EC50 in experiment [2] is 0.18 nM; in experiment [4], 0.6 nM. For the same molecule, in experiment [5], the IC50 was 2 nM.

B6: Humabody VH 2.14 (VHH)
VH: EVQLVESGGGLVKPGGSLRLSCAASGFTFSDYYMTWFRQAPGKGLEWISYISGSGDTIDYAESVKGRFTISRDNAKNSLYLQMNSLRAEDTAVYYCAREDIRMPGTTDFDHWGQGTLVTVSSHHHHHH
notes: human single VH domain
With B6, the binding result in experiment [1] and in experiment [3] was “no binding (tested: 1 ug/ml)” in each case. Moreover, the values for the EC50 in experiment [2] and in experiment [4] were 0.31 nM and 0.61 nM, respectively. In addition, the IC50 in experiment [5] worked out at 2 nM.

B7: Humabody VH 1.1 (VHH)
VH: EVQLVESGGGLVQPGGSLRLSCAASGFTFSSHWMTWFRQAPGKGLEWVAHIKEDGSEKYYEDSVEGRFTVSRDNAKNSVYLQMNSLRAEDTAVYYCARGGDGYSDSHFGVDVWGQGTTVTVSSHHHHHH
notes: human single VH domain; also called single domain antibody 1.1
Turning to B7, the binding result in experiment [1] and in experiment [3] was “no binding (tested: 1 ug/ml)” in each case. Besides, the EC50 in experiment [2] and in experiment [4] was 0.22 nM each time. The IC50 in experiment [5] turned out to be 1.1 nM.

B8: Humabody VH 1.78 (VHH)
VH: QVQLVESGGGLVQPGGSLRLSCAATGFTLSNYWMNWVRQAPGKGLEWVANINQDGSERYYVDSVKGRFTISRDNAKNSLYLQMSSLRAEDTAVYFCARGGEGYGVDHYGLDVSGQGTTVTVSSHHHHHH
notes: human single VH domain
B8: the binding result in experiment [1] and in experiment [3] was “no binding (tested: 1 ug/ml)” each time. Moreover, the EC50 in experiment [2] turned out to be 0.32 nM; in experiment [4] it was 0.61 nM. This molecule also had an IC50 in experiment [5] of 1.5 nM.

B9: Humabody VH 1.18 (VHH)
VH: EVQLVESGGGLVQPGGSLRLSCAASGFTFSTHWMNWARQAPGKELEWVANINQDGSEKYYVDSVEGRFTISRDNANNSLYLQMNSLRAEDTAVYYCARGGVGYGDSHFGMDVWGLGTTVTVSSHHHHHH
notes: human single VH domain
Regarding B9, the binding result in experiment [1] and in experiment [3] was “no binding (tested: 1 ug/ml)” each time. Further, the EC50 in experiment [2] was found to be 0.31 nM; in experiment [4], 1.9 nM. This molecule also had an IC50 in experiment [5] of 1.2 nM.

Broadly, the EC50 is the concentration that produces a half-maximal response. Lower therefore signals higher potency in that assay. Broadly, the IC50 is the point on the concentration scale where inhibition reaches its midpoint. A lower IC50 goes with greater potency in that assay.
